Measured values as given in patent US20250171558A1.

Columns and labels:
[1] = biological target: human FcRn/B2 microglobulin; assay: SPR; pH 6.0
[2] = biological target: FcγRIII; assay: SPR; mouse FcγR
[3] = biological target: FcγRIIb; assay: SPR; mouse FcγR
[4] = biological target: FcγRIV; assay: SPR; mouse FcγR
[5] = biological target: FcγRI; assay: SPR; mouse FcγR
[6] = biological target: FcγRIII; assay: SPR; rhesus FcγR
[7] = biological target: FcγRIIa; assay: SPR; rhesus FcγR
[8] = biological target: FcγRIIb; assay: SPR; rhesus FcγR
[9] = biological target: FcγRI; assay: SPR; rhesus FcγR
[10] = biological target: FcγRIIa R; assay: SPR; human FcγRIIa R131
[11] = biological target: FcγRIIa H; assay: SPR; human FcγRIIa H131
[12] = biological target: FcγRIIIa F; assay: SPR; human FcγRIIIa F157
[13] = biological target: FcγRIIIa V; assay: SPR; human FcγRIIIa V157

| Substance | Kd [1] [nM] | Kd [2] [nM] | Kd [3] [nM] | Kd [4] [nM] | Kd [5] [nM] | Kd [6] [nM] | Kd [7] [nM] | Kd [8] [nM] | Kd [9] [nM] | Kd [10] [nM] | Kd [11] [nM] | Kd [12] [nM] | Kd [13] [nM] |
| --- | --- | --- | --- | --- | --- | --- | --- | --- | --- | --- | --- | --- | --- |
| GAALIE LS+ | 1.4 |  |  |  |  |  |  |  |  |  |  |  |  |
| GAIE LS- | 20.1 |  |  |  |  |  |  |  |  |  |  |  |  |
| SDIE |  | 1080 | 398 | 8.56 | 14.1 | 30 | 685 | 540 | 0.441 | 354 | 769 | 47.5 | 29.6 |
| GAALIE LS- | 19.9 |  |  |  |  |  |  |  |  |  |  |  |  |
| GAALIE |  | 2380 | 1620 | 207 | 440 | 91.2 | 9100 | 6920 | 0.457 | 819 | 622 | 164 | 131 |
| SDIE LS+ | 1.19 |  |  |  |  |  |  |  |  |  |  |  |  |
| GAIE LS+ | 1.99 |  |  |  |  |  |  |  |  |  |  |  |  |
| SDIE LS- | 12.7 |  |  |  |  |  |  |  |  |  |  |  |  |
| GAIE |  | 2520 | 1150 | 258 | 212 | 87.6 | 1400 | 1100 | 0.51 | 204 | 249 | 162 | 130 |
